Data as given in patent US20120321614A1 (Amgen, published 2012).

What was measured:
[1] = molecular target: T1, c-Met ECD-Fc (cynomologus) (cynomologus, UniProt A0A2K5UM36 25-932); experiment: SPR (BIACORE 3000), cynomologus c-Met ECD-Fc immobilized, antibody injected, 1:1 model
T1 construct: also called cynomologus c-Met ECD-Fc
Protocol: (§1) Experiments were performed in a BIACORE™ 3000 instrument at 25° C. in Dulbecco's phosphate buffered saline containing 0.0005% Tween-20. Protein concentrations were obtained from sedimentation velocity experiments or by measuring the wavelength of the sample at 280 nm using theoretical extinction coefficients derived from amino acid sequences. For experiments measuring the binding of antibody to immobilized antigens, 220 RU (resonance units) of c-Met ECD-Fc (human or cynomologus) was immobilized on a B1 chip (BIACORE™) by standard direct amine coupling procedures. […] For each concentration, samples were injected in duplicate at 5 μl/min flow for 4 min. The dissociation was monitored for 2000 seconds. The data were fit globally to a simple 1:1 binding model using BIACORE™ Biavel software. In addition, to determine the koff independent of any potential error in the active concentration or fitting model, the dissociation data were fit globally and independently from association data to a simple dissociation model.

[2] = molecular target: T1, c-Met ECD-Fc (cynomologus); experiment: SPR (BIACORE 3000), cynomologus c-Met ECD-Fc immobilized, antibody injected
Protocol: as §1

[3] = molecular target: T2, c-Met ECD/Fc (R&D Systems #358 MT), human (human, UniProt P08581 25-932); experiment: SPR (BIACORE 3000), human c-Met ECD-Fc immobilized, antibody injected
T2 construct: extracellular domain; Bought fusion protein; also called c-Met ECD-Fc (human); human Met ECD-Fc; not shown: Fc part of the bought fusion protein

[4] = molecular target: T3, c-Met expressed on the surface of human A549 lung carcinoma cells (human, UniProt P08581 25-1390); experiment: flow cytometry on human A549 cells, half-maximal binding at equilibrium
T3 construct: whole, on cells; Used for all assays on cells that carry human c-Met (A549, HepG2, S114); also called human c-Met; c-Met in A549 cells
Protocol: (§2) The binding affinity of purified antibodies for c-Met expressed on the surface of human A549 lung carcinoma cells and cynomolgus kidney cells was determined by flow cytometry using the BD™ Biosciences LSR flow cytometer according to manufacturer's protocols.
(§3) Cells grown in culture were washed with PBS, briefly incubated in the presence of 0.25% trypsin-EDTA (Invitrogen) and collected. The collected cells were washed in PBS wash buffer containing 0.025% sodium azide and 2% heat inactivated serum, pelleted and 5×10⁵ cells and resuspended in 500 μl of the same buffer. The time required to achieve equilibrium binding at room temperature for each antibody was determined independently to be between six and eight hours by incubating subsaturating concentrations of each antibody with cells. […] Each antibody was incubated with detached cells for 6 to 8 hours at room temperature depending on the time required to reach equilibrium. Cells were washed, resuspended and incubated in 500 μl of a 1:500 dilution of biotinylated mouse anti-human IgG (Jackson Labs) in PBS wash buffer for 45 minutes on ice. Next, cells were washed, resuspended and incubated with 10 μg/ml streptavidin R-phycoerythrin conjugate (Caltag) in 200 μl PBS wash buffer for 15 min on ice protected from light. Cells were washed and signal was detected with a BD Biosciences LSR flow cytometer according to manufacturer's protocols.

[5] = molecular target: T2, c-Met ECD/Fc (R&D Systems #358 MT), …; experiment: ELISA, inhibition of HGF binding to plate-coated c-Met ECD/Fc
Protocol: The wells were washed four times with Tris-buffered saline (pH=8.0) with 0.05% TWEEN-20 (TBS-T). Next, 200 μl/well of blocking buffer (3% bovine serum albumin (BSA) in TBS-T) was added for 60 minutes (min) at room temperature to block non-specific binding sites. The wells were washed 4 times with 300 μl/well TBS-T. Next, 100 μl of Dulbecco's Modified Eagle medium (DMEM) supplemented with 10% FBS containing anti-c-Met antibodies from hybridoma supernatants or purified antibodies in either PBS or 20 mM sodium acetate (pH=5.5), 140 mM NaCl at various concentrations (e.g., 10, 3, 1, 0.3, 0.1, 0.03, and 0.01 μg/ml, based on human IgG2 concentrations in the supernatants) was added to each well. Anti-c-Met antibody was not added to the control wells of the experiment. The samples were mixed for 4 hours (hrs) at room temperature. […] The samples were mixed for 15 minutes at room temperature. […] The solutions were incubated in the wells for 30 min at room temperature. […] The samples were incubated for 30 min at room temperature. The wells were washed 5 times with TBS-T, about 300 μl/well/wash. Next, 100 μl/well of 3,3′,5,5′-tetramethylbenzidine (TMB) peroxidase substrate (Kirkegaard & Perry Laboratories) was added and developed for 1-2 min at room temperature. To stop the reaction, 100 μl/well of TMB stop solution (Kirkegaard & Perry Laboratories, #50-85-04) was added. The samples were read at a wavelength of 450 nanometers (nm) on a 96-well plate reader and no background was subtracted.

[6] = molecular target: T3, c-Met expressed on the surface of human …; experiment: cell-based or functional assay
[7] = molecular target: T4, c-Met expressed on the surface of cynomolgus kidney cells (cynomolgus, UniProt A0A2K5UM36 25-1381); experiment: flow cytometry on cynomolgus kidney cells, half-maximal binding at equilibrium
T4 construct: also called cynomologus c-Met expressed on the cell surface
Protocol: as §2, §3

[8] = molecular target: T2, c-Met ECD/Fc (R&D Systems #358 MT), …; experiment: SPR (BIACORE 3000), human c-Met ECD-Fc immobilized, antibody injected, 1:1 model
Protocol: as §1

[9] = molecular target: T5, Insulin-like Growth Factor 1 Receptor (IGF-1R) (UniProt P08069 31-1367, limits assumed); experiment: IGF-1R Cell ELISA: IGF-1R tyrosine phosphorylation after IGF-1, % of control. Indirect readout; the legend says that the antibody does not bind IGF-1R
T5 construct: also called IGF-IR

[10] = molecular target: T2, c-Met ECD/Fc (R&D Systems #358 MT), …; experiment: Ligand Binding ELISA (competition): plate coated with c-Met ECD/Fc, antibody concentration varied, then HGF added and bound HGF detected; readout is % inhibition of HGF binding
Protocol: The wells were washed four times with Tris-buffered saline (pH=8.0) with 0.05% TWEEN-20 (TBS-T). Next, 200 μl/well of blocking buffer (3% bovine serum albumin (BSA) in TBS-T) was added for 60 minutes (min) at room temperature to block non-specific binding sites. The wells were washed 4 times with 300 μl/well TBS-T. Next, 100 μl of Dulbecco's Modified Eagle medium (DMEM) supplemented with 10% FBS containing anti-c-Met antibodies from hybridoma supernatants or purified antibodies in either PBS or 20 mM sodium acetate (pH=5.5), 140 mM NaCl at various concentrations (e.g., 10, 3, 1, 0.3, 0.1, 0.03, and 0.01 μg/ml, based on human IgG2 concentrations in the supernatants) was added to each well. Anti-c-Met antibody was not added to the control wells of the experiment. The samples were mixed for 4 hours (hrs) at room temperature. […] The samples were mixed for 15 minutes at room temperature. […] The solutions were incubated in the wells for 30 min at room temperature. […] The samples were incubated for 30 min at room temperature. The wells were washed 5 times with TBS-T, about 300 μl/well/wash. Next, 100 μl/well of 3,3′,5,5′-tetramethylbenzidine (TMB) peroxidase substrate (Kirkegaard & Perry Laboratories) was added and developed for 1-2 min at room temperature. […] The samples were read at a wavelength of 450 nanometers (nm) on a 96-well plate reader and no background was subtracted.

T4 sequence (A0A2K5UM36 entry or part of it limits assumed): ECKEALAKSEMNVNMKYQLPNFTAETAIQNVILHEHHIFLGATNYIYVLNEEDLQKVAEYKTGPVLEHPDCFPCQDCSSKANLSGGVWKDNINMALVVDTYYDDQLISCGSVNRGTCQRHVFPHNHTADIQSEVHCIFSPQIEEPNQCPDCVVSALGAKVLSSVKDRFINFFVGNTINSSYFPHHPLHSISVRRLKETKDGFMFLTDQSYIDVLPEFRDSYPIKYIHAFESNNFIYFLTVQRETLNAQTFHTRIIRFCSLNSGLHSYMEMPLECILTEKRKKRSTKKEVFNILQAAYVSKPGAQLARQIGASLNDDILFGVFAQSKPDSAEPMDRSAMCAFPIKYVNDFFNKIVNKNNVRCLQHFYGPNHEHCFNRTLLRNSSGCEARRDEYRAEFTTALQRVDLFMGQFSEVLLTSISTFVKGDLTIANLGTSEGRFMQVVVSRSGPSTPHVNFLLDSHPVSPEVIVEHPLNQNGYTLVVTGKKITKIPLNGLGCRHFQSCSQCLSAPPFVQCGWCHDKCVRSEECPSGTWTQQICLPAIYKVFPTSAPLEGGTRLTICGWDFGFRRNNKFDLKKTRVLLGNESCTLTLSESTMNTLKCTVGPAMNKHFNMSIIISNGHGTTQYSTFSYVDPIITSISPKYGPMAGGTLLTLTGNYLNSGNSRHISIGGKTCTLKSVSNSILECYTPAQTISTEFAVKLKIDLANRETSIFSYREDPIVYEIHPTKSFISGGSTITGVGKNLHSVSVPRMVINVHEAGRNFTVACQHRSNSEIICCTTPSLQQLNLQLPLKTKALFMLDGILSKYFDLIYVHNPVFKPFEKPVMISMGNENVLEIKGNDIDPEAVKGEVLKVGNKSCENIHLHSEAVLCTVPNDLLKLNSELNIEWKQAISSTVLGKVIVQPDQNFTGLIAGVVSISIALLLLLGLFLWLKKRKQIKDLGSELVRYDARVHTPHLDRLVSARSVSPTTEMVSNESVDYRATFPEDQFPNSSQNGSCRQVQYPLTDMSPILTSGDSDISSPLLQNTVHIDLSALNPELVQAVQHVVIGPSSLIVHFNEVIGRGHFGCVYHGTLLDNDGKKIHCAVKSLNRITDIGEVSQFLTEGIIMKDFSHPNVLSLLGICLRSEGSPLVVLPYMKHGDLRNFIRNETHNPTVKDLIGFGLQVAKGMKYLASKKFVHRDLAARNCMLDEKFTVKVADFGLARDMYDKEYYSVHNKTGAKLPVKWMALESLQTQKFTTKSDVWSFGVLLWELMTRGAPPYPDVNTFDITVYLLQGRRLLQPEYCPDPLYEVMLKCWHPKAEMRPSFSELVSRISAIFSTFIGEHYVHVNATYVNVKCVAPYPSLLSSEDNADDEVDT
T3 sequence (P08581 25-1390): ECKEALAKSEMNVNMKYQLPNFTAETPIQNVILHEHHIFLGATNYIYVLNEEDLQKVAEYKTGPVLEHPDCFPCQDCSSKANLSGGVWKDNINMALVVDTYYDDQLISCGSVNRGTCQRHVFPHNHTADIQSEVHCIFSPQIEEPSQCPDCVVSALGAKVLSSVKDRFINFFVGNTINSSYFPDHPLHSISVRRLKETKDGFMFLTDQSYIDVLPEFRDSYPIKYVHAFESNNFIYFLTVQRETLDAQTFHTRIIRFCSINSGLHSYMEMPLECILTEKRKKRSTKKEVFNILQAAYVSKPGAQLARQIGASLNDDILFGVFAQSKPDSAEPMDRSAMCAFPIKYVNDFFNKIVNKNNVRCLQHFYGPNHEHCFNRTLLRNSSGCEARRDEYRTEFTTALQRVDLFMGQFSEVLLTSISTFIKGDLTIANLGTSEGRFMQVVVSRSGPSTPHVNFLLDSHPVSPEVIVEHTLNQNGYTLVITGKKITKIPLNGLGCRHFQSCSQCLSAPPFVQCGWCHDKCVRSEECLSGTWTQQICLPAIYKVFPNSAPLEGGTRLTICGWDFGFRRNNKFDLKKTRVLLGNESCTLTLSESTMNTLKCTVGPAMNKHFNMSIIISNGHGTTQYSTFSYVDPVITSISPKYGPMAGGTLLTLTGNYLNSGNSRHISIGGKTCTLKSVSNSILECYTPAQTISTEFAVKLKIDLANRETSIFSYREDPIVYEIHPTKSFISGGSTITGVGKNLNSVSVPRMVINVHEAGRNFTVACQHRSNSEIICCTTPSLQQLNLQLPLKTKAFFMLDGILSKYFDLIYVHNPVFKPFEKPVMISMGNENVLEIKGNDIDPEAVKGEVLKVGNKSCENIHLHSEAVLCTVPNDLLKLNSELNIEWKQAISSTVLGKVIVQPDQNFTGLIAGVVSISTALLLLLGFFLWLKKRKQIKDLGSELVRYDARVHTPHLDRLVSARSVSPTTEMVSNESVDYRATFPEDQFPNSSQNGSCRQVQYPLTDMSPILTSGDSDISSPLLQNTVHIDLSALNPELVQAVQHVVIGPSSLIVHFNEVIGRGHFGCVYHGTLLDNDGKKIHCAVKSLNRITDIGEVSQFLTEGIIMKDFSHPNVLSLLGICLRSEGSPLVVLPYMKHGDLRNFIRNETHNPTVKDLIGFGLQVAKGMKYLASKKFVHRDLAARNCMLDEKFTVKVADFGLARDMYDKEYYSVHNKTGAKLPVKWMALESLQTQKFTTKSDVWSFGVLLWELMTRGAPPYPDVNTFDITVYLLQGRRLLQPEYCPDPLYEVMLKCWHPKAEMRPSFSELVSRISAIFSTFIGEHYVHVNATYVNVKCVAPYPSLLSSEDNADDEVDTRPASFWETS
T1 sequence (A0A2K5UM36 entry or part of it limits assumed): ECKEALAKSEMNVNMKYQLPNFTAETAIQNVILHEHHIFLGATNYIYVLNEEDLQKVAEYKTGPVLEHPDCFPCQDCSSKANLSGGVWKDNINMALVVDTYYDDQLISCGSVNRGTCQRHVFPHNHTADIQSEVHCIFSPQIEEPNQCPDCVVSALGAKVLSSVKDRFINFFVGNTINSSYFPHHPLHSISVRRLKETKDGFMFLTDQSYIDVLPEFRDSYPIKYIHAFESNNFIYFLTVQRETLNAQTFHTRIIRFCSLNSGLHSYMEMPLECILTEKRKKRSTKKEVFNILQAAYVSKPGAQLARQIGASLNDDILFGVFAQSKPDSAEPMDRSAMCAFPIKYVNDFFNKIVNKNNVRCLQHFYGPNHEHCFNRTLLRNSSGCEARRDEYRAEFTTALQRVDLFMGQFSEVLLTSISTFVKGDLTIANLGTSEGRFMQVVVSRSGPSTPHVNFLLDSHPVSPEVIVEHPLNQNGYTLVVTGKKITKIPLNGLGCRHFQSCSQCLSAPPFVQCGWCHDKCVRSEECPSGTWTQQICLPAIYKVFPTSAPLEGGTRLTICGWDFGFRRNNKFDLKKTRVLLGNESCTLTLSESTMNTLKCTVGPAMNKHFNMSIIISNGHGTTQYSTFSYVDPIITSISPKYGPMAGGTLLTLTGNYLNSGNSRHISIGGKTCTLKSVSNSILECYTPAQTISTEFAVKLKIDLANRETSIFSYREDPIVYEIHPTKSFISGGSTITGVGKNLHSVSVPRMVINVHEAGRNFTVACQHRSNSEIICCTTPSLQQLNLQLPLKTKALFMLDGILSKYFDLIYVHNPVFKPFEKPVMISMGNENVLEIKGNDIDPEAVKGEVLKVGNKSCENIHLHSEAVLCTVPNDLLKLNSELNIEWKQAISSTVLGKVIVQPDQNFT
T2 sequence (P08581 25-932): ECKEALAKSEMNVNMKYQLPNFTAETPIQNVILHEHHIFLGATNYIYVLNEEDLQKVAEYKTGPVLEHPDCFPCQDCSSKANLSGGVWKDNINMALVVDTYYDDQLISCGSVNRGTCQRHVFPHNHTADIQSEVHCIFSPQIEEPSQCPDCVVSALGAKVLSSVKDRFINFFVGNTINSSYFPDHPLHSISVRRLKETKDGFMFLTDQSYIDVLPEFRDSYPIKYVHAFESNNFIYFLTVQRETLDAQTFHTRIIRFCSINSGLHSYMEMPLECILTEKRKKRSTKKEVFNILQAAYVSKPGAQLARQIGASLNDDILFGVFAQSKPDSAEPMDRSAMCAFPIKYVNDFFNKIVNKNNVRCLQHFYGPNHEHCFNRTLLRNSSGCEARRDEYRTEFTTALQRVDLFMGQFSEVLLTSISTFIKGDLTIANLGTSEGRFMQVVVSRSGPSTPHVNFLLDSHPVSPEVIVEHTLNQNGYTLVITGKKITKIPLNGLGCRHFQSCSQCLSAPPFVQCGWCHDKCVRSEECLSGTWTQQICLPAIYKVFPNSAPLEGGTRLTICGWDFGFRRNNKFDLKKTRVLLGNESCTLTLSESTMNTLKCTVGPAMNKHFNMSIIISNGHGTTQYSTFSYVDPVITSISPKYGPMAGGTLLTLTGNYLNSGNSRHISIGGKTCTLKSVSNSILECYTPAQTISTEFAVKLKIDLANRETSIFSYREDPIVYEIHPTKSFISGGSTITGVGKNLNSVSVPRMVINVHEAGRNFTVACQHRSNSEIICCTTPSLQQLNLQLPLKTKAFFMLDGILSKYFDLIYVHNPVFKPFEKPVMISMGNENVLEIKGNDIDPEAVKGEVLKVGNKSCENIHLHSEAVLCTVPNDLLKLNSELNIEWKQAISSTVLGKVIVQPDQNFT

Binder	Kd [1]	koff [2]	koff [3]	Kd [4]	IC50 [5]	Agonist Activity [maximum fold stimulation] [6]	Cellular Met Levels [% loss at 1.0 µg/ml] [6]	Cellular pTyr Assay [IC50, µg/ml] [6]	Soft Agar Growth [IC50, µg/ml] [6]	Tubular Morphogenesis Agonism [fold stimulation at 50 µg/ml] [6]	Tubular Morphogenesis Antagonism [% inhibition at 1 µg/ml] [6]	Kd [7]	Kd [8]	binding result [9]	IC50 (read off the curve) [10]
anti-c-Met monoclonal antibody 8.70.2 (antibody, V domains shown, Human IgG2 kappa; also called hybridoma 8.70.2 (LN 15885); PTA-5028) VH: QLQLQESGPGLVKPSETLSLTCTVSGGSISSSSYYGGWIRQPPGKGLDWIGSIYYSGNTYYNPSLKSRVTISVDTSKNQFSLKLSSVTAADTAVYYCARHSWDYFDYWDQGTLVTVSS VL: DIQMTQSPSSVSASVGDRVTITCRASQGISSWLAWYQQKPGKAPKLLIYAASSLQSGVPSRFSGSGSGTDFTLTISSLQSEDFATYYCQQANSFPITFGPGTKVEIKR	0.32 nM	6.5e-05 s⁻¹	6.1e-05 s⁻¹	0.0407 nM	0.115 µg/mL	2.5 fold stimulation (maximum)	11 % loss at 1.0 µg/ml	0.143 µg/ml	25 µg/mL	8.2 fold stimulation at 50 µg/ml	25 % inhibition at 1 µg/ml	0.0553 nM	0.33 nM		
anti-c-Met monoclonal antibody 8.90.3 (antibody, V domains shown, Human IgG2 kappa) VH: EVQLVESGGGLVQPGGSLRLSCAASGFTFSRYSMNWVRQAPGKGLEWVSYISSRSSTIYYADSVKGRFTMSRDNAKNSLYMQMNSLRDEDTAVYYCGYGDYDYFDYWGQGTLVTVSS VL: DIQMTQSPSSVSASVGDRVIITCRASQGISSWLAWYQQKPGKAPKLLIYAASSLKSGVPSRFSGSGSGTDFTVTISSLQPEDFATYYCQQSNSLPWTFGQGTKVEIKR	1.22 nM	0.00025 s⁻¹	0.00015 s⁻¹	0.026 nM	0.11 µg/mL	2.3 fold stimulation (maximum)	17.5 % loss at 1.0 µg/ml	0.086 µg/ml	10.5 µg/mL	2.5 fold stimulation at 50 µg/ml	61 % inhibition at 1 µg/ml	0.393 nM	0.53 nM		
anti-c-Met monoclonal antibody 13.3.2 (antibody, human IgG2, kappa, V domains shown, Human IgG2 kappa from XenoMouse hybridoma; The variable positions X2, X4, X6, X8 correspond to positions 42, 97, 14 (heavy) and 91 (light), where position one is the N-terminal amino acid; these numbers may not count on the entry with its leader; also called PTA-5026) VH: QVQLVQSGAEVKKPGASVKVSCEASGYTFTSYGFSWVRQAPGQGLEWMGWISASNGNTYYAQKLQGRVTMTTDTSTSSAYMELRSLRSDDTAVYYCARVYADYADYWGQGTLVTVSS VL: DIQMTQSPSSVSASVGDRVTITCRASQGINTWLAWYQQKPGKAPKLLIYAASSLKSGVPSRFSGSGSGADFTLTISSLQPEDFATYYCQQANSFPLTFGGGTKVEIKR	0.6 nM	0.00029 s⁻¹	0.00015 s⁻¹	0.0393 nM	0.09 µg/mL	2.7 fold stimulation (maximum)		0.033 µg/ml	8.5 µg/mL			0.0486 nM	0.22 nM	no binding (tested: 1000 µg/ml)	~0.03 µg/mL
anti-c-Met monoclonal antibody 13.3.2L-A91T, H-E42K, S97T (antibody, human IgG2, kappa, V domains shown, positions 42, 97, 14 and 91 count from the N-terminal amino acid and may not count on the entry with its leader) VH: QVQLVQSGAEVKKPGASVKVSCKASGYTFTSYGFSWVRQAPGQGLEWMGWISASNGNTYYAQKLQGRVTMTTDTSTSTAYMELRSLRSDDTAVYYCARVYADYADYWGQGTLVTVSS VL: DIQMTQSPSSVSASVGDRVTITCRASQGINTWLAWYQQKPGKAPKLLIYAASSLKSGVPSRFSGSGSGTDFTLTISSLQPEDFATYYCQQANSFPLTFGGGTKVEIKR	0.61 nM	0.0004 s⁻¹	0.00018 s⁻¹	0.056 nM	0.127 µg/mL	2.5 fold stimulation (maximum)	28.5 % loss at 1.0 µg/ml	0.032 µg/ml				0.0733 nM	0.2 nM		~0.05 µg/mL
anti-c-Met monoclonal antibody 9.1.2 (antibody, V domains shown, Human IgG2 kappa; also called hybridoma 9.1.2 (LN 15884); PTA-5027) VH: QVQLQESGPGLVKPSQTLSLTCTVSGGSISSGGYYWSWIRQHPGKGLEWIGYIYYSGSTYYNPSLKSRVTISVDTSKNQFSLKLSSVTAADTAVYYCARDGPLGYCSSTSCPVTGEYYYYGMDVWGQGTTVTVSS VL: EIVLTQSPGTLSLSPGERATLSCRASQSVSNNYLAWYQQKPGQAPRLLIFGASSRATGIPDRFSGSGSGTDFTLTISRLEPEDFAVYYCQQYDISPMYSFGQGTKLEMKR	1.1 nM	9.8e-05 s⁻¹	6.8e-05 s⁻¹	0.169 nM	0.093 µg/mL	6.5 fold stimulation (maximum)	46.9 % loss at 1.0 µg/ml	0.033 µg/ml	5.5 µg/mL	2.2 fold stimulation at 50 µg/ml	84 % inhibition at 1 µg/ml	0.168 nM	0.82 nM	no binding (tested: 1000 µg/ml)	
